± gives the half width of the 95% confidence interval.

26 sequences from the supplement of paper PMC12764529 can be followed below.

Data set [1] is described as follows: folding stability dG unfold (combined trypsin and chymotrypsin); higher = more stable. The gist of the method: (§1)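 Only designs with AlphaFold2 dimer inter-PAE above 15 were retained; each was a mini-protein under 80 residues with no cysteine, in a PA-tagged cDNA display construct. After digestion with trypsin and chymotrypsin and sequencing, K50 was inferred by Bayesian fitting of counts, and unfolding free energy was derived per protease or combined against a sequence-predicted unfolded-state K50 and a shared folded-state K50.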

The nature of data set [2]: folding stability dG unfold from chymotrypsin proteolysis; higher = more stable. Summed up: as §1
Data set [3] is described as follows: folding stability dG unfold from trypsin proteolysis; higher = more stable. The gist of the method:
as §1

On to “SAGEFKIDILPGDNVARITSPEGSFLAPFTATFTFDVPDIADPNKIKPKPVVFNLVIEMKLDDFFDLLSSAG [r5_234_TrMRF]”, for which the “folding stability dG unfold” value came to 3.36 ± 0.15 kcal/mol in data set [1], 4.17 ± 0.17 kcal/mol in data set [2] and 2.49 ± 0.1 kcal/mol in data set [3].

With “SAGEIAEKLGFKVEDVSIQKEDGTYRIVVRFPMDDRPVVIMGDIKVEEKNGKRKIEIDIDIMPLPPDDPSAG [r5_516_TrROS]”, the “folding stability dG unfold” value stood at 1.7 ± 0.086 kcal/mol in data set [1], 1.57 ± 0.054 kcal/mol in data set [2] and 1.89 ± 0.03 kcal/mol in data set [3].

On to “SAGEKEYVNLPLVVKLPPGVPASLILDAAVKHGAKEVTIVEEPTPDGGMVLHINLVLPKEALPKLLESLSAG [r5_376_TrMRF]”, for which the results for the “folding stability dG unfold” value in data set [1], in data set [2] and in data set [3] were 4.79 ± 0.3 kcal/mol, 4.61 ± 0.17 kcal/mol and 4.39 ± 0.21 kcal/mol, respectively.

Take “SAGEKFEPVEEKELTLKITLKDKDGNEKEVEIKVKVEVVKNPDGTLTVRAEITFEDGTKIELELEIKLPSAG [r5_57_TrROS_Hall]”: the “folding stability dG unfold” value in data set [1] amounted to 3.11 ± 0.33 kcal/mol; in data set [2], 3.19 ± 0.23 kcal/mol; in data set [3], 3.27 ± 0.16 kcal/mol.

In the case of “SAGEKKKVVIVVHIHIEAESEEDREKALEEARKLAEELARELKEKLGLPEDVKEVVVIVHIHPRSEEEKSAG [r5_436_TrROS_Hall]”, the “folding stability dG unfold” value in data set [1] was determined as 2.25 ± 0.12 kcal/mol; in data set [2] it was 2.42 ± 0.083 kcal/mol; in data set [3], 2.01 ± 0.086 kcal/mol.

For “SAGEKTVKIKLPNTKTITVKVKKNEKKILYLPNGEKILITDVKKGKVSLKKGITYVKDKNGKWYPLKYKSAG [r5_417_TrMRF]”, the figures for the “folding stability dG unfold” value in data set [1], in data set [2] and in data set [3] were 1.37 ± 0.1 kcal/mol, 1.86 ± 0.079 kcal/mol and 0.332 ± 0.15 kcal/mol, respectively.

Regarding “SAGELELELELEFELEDGYRVEVRLRLRVRPDGSVRMELEVRIEPLPPPPPVRVVVVREDDPEALRALSAGG [r19_12_TrROS_Hall]”, the “folding stability dG unfold” value is 3.6 ± 0.61 kcal/mol in data set [1], 4.49 ± 0.19 kcal/mol in data set [2] and 2.73 ± 0.1 kcal/mol in data set [3].

In the case of “SAGELTAEEIAERLRKLLEELGIEEVEVEVEEVEVEEEEEPVEEEEEEELSEEERERLRRERLEEEGLLSAG [r5_9_TrROS_Hall]”, the “folding stability dG unfold” value turned out to be 1.92 ± 0.12 kcal/mol in data set [1], 2.1 ± 0.037 kcal/mol in data set [2] and 1.59 ± 0.073 kcal/mol in data set [3].

In the case of “SAGEPDKPFTLTLKLLLPQSEDGTPLTPEEAEELAKEISTELGVEVEEIKITSNPEGNFVEIEVKLRGSAGG [r19_322_TrMRF]”, the “folding stability dG unfold” value was 2.4 ± 0.059 kcal/mol in data set [1], 2.568 ± 0.015 kcal/mol in data set [2] and 2.02 ± 0.031 kcal/mol in data set [3].

With “SAGEPLGPEKAKELAEELVERVAREIAERLGLAPEEVEVVSVELTPDGRLVLTLRVPEREFTFVFPVEGSAG [r5_565_TrMRF]”, the “folding stability dG unfold” value was determined as 4.62 ± 0.054 kcal/mol in data set [1], 4.89 ± 0.054 kcal/mol in data set [2] and 3.36 ± 0.078 kcal/mol in data set [3].

Regarding “SAGERKVLVIENLTSEELIEAIREALEKSPPGLLILVPDPEKAEEIRRAFPGIPLVVLNRETGELVEVESAG [r5_391_TrMRF]”, the “folding stability dG unfold” value in data set [1] amounted to 3.33 ± 0.099 kcal/mol; in data set [2] it was 3.46 ± 0.044 kcal/mol; in data set [3], 3 ± 0.12 kcal/mol.

As to “SAGEVKIEISVEKVGGKYIVRIKVTVDGKEYEYEFPAGKSVEELAKELEKKLNLKVKKIEVEVRKLPPKSAG [r5_181_TrROS_Hall]”, the “folding stability dG unfold” value was 3.28 ± 0.25 kcal/mol in data set [1], 3.47 ± 0.12 kcal/mol in data set [2] and 2.88 ± 0.11 kcal/mol in data set [3].

As for “SAGEVKIEVEGLPDKTVIRITIPYTAPGVGPSALLAVLKELGLPPETKLLKVEFYEEPKTVEALVVQGSAGG [r19_186_TrMRF]”, the “folding stability dG unfold” value in data set [1] is 1.63 ± 0.11 kcal/mol; in data set [2], 1.72 ± 0.16 kcal/mol; in data set [3], 1.13 ± 0.088 kcal/mol.

With “SAGEYVLVEVERGGKVETFVLPPELAKELLEKYSPDSEIPVKLEGREVRLRVLPIKPKEPTPEELAKAASAG [r5_669_TrMRF]”, the “folding stability dG unfold” value in data set [1] came to 1.41 ± 0.16 kcal/mol; in data set [2], 1.85 ± 0.14 kcal/mol; in data set [3], 0.306 ± 0.085 kcal/mol.

For “SAGFEARVLEVVDLGDRRVALFELRDPEEGRYLLAVAVYDPETGLARVELWDPTDGRLVATPVVPVLPLSAG [r5_440_TrMRF]”, the “folding stability dG unfold” value in data set [1] amounted to 2.12 ± 0.066 kcal/mol; in data set [2] it was 2.36 ± 0.047 kcal/mol; in data set [3], 1.72 ± 0.027 kcal/mol.

As to “SAGFKIKIEPIEVLPNGTVKYKAIIETEKEKYEVEAFYNPKTGLIYIYSPKTGSIMKINPKTGKIILIPSAG [r14_260_TrMRF]”, the “folding stability dG unfold” value was 4.03 ± 0.2 kcal/mol in data set [1], 4.18 ± 0.11 kcal/mol in data set [2] and 3.44 ± 0.15 kcal/mol in data set [3].

For “SAGFSIVEVEPDEDTYTITIEYTLPNGTVKTKDLPLKAKNPVLLEISENEITIYLPDTNEVVTLPVSLISAG [r14_947_JUSTAS]”, the results for the “folding stability dG unfold” value in data set [1], in data set [2] and in data set [3] were 1.87 ± 0.29 kcal/mol, 1.74 ± 0.16 kcal/mol and 1.92 ± 0.087 kcal/mol, respectively.

In the case of “SAGFYFRITEITVNPDAGKLTIRNPNGQEQEIPPGGKISIKMRFYRFNDNGGKPETFEMEHTIPIPPGDSAG [r14_366_TrROS]”, the “folding stability dG unfold” value turned out to be 3.15 ± 0.12 kcal/mol in data set [1], 3.43 ± 0.085 kcal/mol in data set [2] and 2.62 ± 0.042 kcal/mol in data set [3].

On to “SAGGAEEARKAGRPVLLTVTVTAPGSGKVSTLPLLVPADRPVDVEALVAALFPADWAVTVSVSPVGGSAGGS [r8_127_JUSTAS]”, for which the entries for the “folding stability dG unfold” value in data set [1], in data set [2] and in data set [3] were 1.27 ± 0.11 kcal/mol, 1.37 ± 0.051 kcal/mol and 1.32 ± 0.028 kcal/mol, respectively.

With “SAGGAEELAKRLAEELREAGYEVEVVKVERLENGEVVITMKVRVVKDGKEVEEREIKLVLKLPEELLSAGGS [r8_102_TrROS_Hall]”, the “folding stability dG unfold” value in data set [1] was determined as 3.98 ± 0.086 kcal/mol; in data set [2], 4.03 ± 0.069 kcal/mol; in data set [3], 3.93 ± 0.097 kcal/mol.

As for “SAGGAEIKITSIEYNPETKTITAKVEITVDGKKFTFTITIKLKAAPAPPTVTVTDKDIPGKTVTLTKTSAGG [r13_615_TrROS_Hall]”, the “folding stability dG unfold” value in data set [1] was 2.1 ± 0.24 kcal/mol; in data set [2], 2.38 ± 0.13 kcal/mol; in data set [3], 1.51 ± 0.14 kcal/mol.

As to “SAGGAFPPGEKVEVRIEVVELPGEGTYLLRAYLPGGKLLWERPFPEGELEAFAEEFRSLGFDTVEVTPSAGG [r13_765_TrMRF]”, the “folding stability dG unfold” value in data set [1] amounted to 2.69 ± 0.035 kcal/mol; in data set [2] it was 2.736 ± 0.0075 kcal/mol; in data set [3], 2.512 ± 0.021 kcal/mol.

Regarding “SAGGAGDQPVVIVATGSDGSPRVFPFKTKEPFKVTVNFPDEKRVFTVPADEPFVFDAPDGDILLDASSAGGS [r16_456_TrMRF]”, the “folding stability dG unfold” value is 0.394 ± 0.095 kcal/mol in data set [1], 0.697 ± 0.12 kcal/mol in data set [2] and -0.23 ± 0.11 kcal/mol in data set [3].

On to “SAGGAITLEYEVETEEEAEKAIEELEKELKEKFGGPVKIEKATIEKTEDPSVPREKYRLKLTIEINKSAGGS [r8_171_JUSTAS]”, for which the “folding stability dG unfold” value in data set [1] amounted to 0.858 ± 0.28 kcal/mol; in data set [2], 1.08 ± 0.11 kcal/mol; in data set [3] it was 0.198 ± 0.13 kcal/mol.

Regarding “SAGGAKIKFDIEPTNNTIRVKIEIWLPGGPVEIVEEEPVRVDPNGGIWISFRIRYPDGKPQEFQIPISAGGS [r8_449_TrROS]”, the figures for the “folding stability dG unfold” value in data set [1], in data set [2] and in data set [3] were 2.88 ± 0.14 kcal/mol, 3.08 ± 0.07 kcal/mol and 2.62 ± 0.057 kcal/mol, respectively.

As to “SAGGAKITVDDNKITIELPLPNGKPAGSINEPLPDGSSRILVKFPDFVLHLEITPEGIKIASIDNNKDSAGG [r13_619_TrMRF]”, the “folding stability dG unfold” value in data set [1] came out at 1.51 ± 0.22 kcal/mol; in data set [2], 1.77 ± 0.064 kcal/mol; in data set [3] it was 1.27 ± 0.068 kcal/mol.
